The values below come from paper PMC3186789.

For the assay, the target named is T1, Group B Streptococcus recombinant sortase A SrtA_(ΔN40) (Streptococcus agalactiae strain 515 (serotype Ia)) (UniProt Q8DZY1).
T1 sequence: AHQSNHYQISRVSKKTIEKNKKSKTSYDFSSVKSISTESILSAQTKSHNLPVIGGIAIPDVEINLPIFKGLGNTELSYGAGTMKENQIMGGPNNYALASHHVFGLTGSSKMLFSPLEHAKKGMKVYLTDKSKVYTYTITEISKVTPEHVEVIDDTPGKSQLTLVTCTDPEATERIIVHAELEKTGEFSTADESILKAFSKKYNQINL

Primed or numbered codes have the meaning given here. The star is where a group is joined. Dabcyl′ = CN(C)c1ccc(/N=N/c2ccc(C(=O)*)cc2)cc1; EDANS = O=S(=O)(O)c1cccc2c(NCCN*)cccc12

B1: AP2-2a peptide (Dabcyl-SFLPKTGM-Edans) (peptide)
peptide: {Dabcyl′}-SFLPKTGM-{EDANS}
SMILES: CSCC[C@H](NC(=O)CNC(=O)[C@@H](NC(=O)[C@H](CCCCN)NC(=O)[C@@H]1CCCN1C(=O)[C@H](CC(C)C)NC(=O)[C@H](Cc1ccccc1)NC(=O)[C@H](CO)NC(=O)c1ccc(/N=N/c2ccc(N(C)C)cc2)cc1)[C@@H](C)O)C(=O)NCCNc1cccc2c(S(=O)(=O)O)cccc12
Take B1: the apparent Michaelis constant K (m,app) of the transpeptidation reaction (FRET assay, 1-384 µM peptide, 3 µM SrtA (ΔN40), 75 mM triglycine, 37°C, 20 mM HEPES pH 7.5) amounted to 48.4 µM.
